Each block holds one molecule with its values, some of them ahead of it. Where no end group is shown, it is not given here. Side-chain parts run from the residue outwards. acetamide = acetamide linker between the Cys residue and the PEG
Experiments:
human CRHR2 = target: T1, human CRHR2 (Homo sapiens, UniProt Q13324); experiment: cAMP assay, h-CRHR2 transfected SK-N-MC cells; type: cell-based
T1 construct: expressed in transfected cells
T1 sequence (Q13324 1-411): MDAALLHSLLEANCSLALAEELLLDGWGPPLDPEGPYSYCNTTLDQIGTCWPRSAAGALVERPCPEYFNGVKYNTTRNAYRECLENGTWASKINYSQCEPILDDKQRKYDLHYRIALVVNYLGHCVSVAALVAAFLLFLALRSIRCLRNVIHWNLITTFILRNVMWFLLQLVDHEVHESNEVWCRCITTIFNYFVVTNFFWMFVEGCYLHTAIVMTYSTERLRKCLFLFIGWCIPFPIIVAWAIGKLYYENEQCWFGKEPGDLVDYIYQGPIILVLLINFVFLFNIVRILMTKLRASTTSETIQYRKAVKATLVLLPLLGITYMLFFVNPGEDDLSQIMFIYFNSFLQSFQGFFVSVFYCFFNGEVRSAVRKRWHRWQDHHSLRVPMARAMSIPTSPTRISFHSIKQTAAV
In short: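 Intracellular cAMP was quantified by radioligand competition against a cAMP standard curve after HCl lysis of h-CRHR2-transfected SK-N-MC cells. These cells had been exposed to peptides from 1 pM to 1 μM for 1 h at 37 °C with IBMX. Responses were scaled to the daily h-SCP maximum and fitted to the Hill equation to give A50/pA50.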

HF dogs = experiment: Single SC bolus injection in HF dogs; type: in vivo, dog
Procedure: After reaching a steady state plasma concentration, the heart rate remained fairly stable. […] The target plasma concentration of about 60 ng/mL is reached in about 2 hours and 10 minutes after the time point of injection, then leveling off at about 100 ng/mL after about 3, still maintaining its level at about 6 hours after injection. The stresscopin-relative concentration of 60 ng/mL and of 100 ng/mL of a SEQ ID NO:102 peptide is 600 pg/mL and 1000 pg/mL, respectively.

[1] = Nonclinical pharmacokinetics in rats; parameters: species or system rat; conditions: rat, in vivo; for % F (Bioavailability) / AUC0-∞ / Tmax: sc
Procedure: (§1) A sandwich immunoassay was developed using an affinity purified goat polyclonal antibody, specific to h-SCP that was pre-coated onto a microplate with integrated electrodes. h-SCP molecules present in the sample will bind to the capture polyclonal antibody coated on the plate. After washing away any unbound substances, a sulfo-tagged mouse monoclonal anti-h-SCP antibody was added. This conjugated antibody will bind to the h-SCP molecules captured on the microplate and the quantity of analyte was determined by electrochemiluminescence. The amount of signal generated is directly proportional to the h-SCP concentration in the sample or standard. The standard curve range is 3.125-1600 pg/mL with a quantifiable range from 10-800 pg/mL. A sample volume of 25 μL (in duplicate) is required for this assay. This immunoassay is specific for human and dog stresscopin and human urocortin III (h-UCN3). […] After completion of the analysis, based on a comparison of reference standards between the ELISA and HPLC method, a correction factor of 1.57 was applied to all bioanalytical data.
(§2) The nonclinical pharmacokinetics of h-SCP (SEQ ID NO:1) and pegylated stresscopin-like peptides were studied in rats, dogs, and cynomolgus monkeys (cyno). Nonclinical pharmacokinetic studies focused on characterization of IV infusion at pharmacologically relevant dose levels, supplemented with IV and SC bolus and toxicokinetic analysis.

[2] = Nonclinical pharmacokinetics in dogs; parameters: species or system dog; conditions: dog, in vivo
Procedure: as §1, §2

[3] = target: T2, human corticotrophin releasing hormone receptor type 2 (CRHR2) (human) (UniProt Q13324); experiment: radioligand competition against [125I]-anti-sauvagine-30, membranes of SK-N-MC cells with human CRHR2
T2 sequence (looked up): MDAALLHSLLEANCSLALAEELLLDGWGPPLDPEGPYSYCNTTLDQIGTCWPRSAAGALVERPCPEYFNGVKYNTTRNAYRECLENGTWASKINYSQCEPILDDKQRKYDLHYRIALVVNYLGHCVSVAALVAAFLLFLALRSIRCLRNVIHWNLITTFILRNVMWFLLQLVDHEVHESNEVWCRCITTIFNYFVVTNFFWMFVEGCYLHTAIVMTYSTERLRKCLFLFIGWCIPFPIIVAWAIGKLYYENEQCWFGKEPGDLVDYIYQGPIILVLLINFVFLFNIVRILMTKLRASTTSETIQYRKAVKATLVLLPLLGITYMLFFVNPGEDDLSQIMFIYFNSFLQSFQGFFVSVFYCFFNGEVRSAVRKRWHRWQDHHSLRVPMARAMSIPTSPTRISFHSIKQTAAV

[4] = target: T2, human corticotrophin releasing hormone receptor type 2 (CRHR2) (human); experiment: cell-based or functional assay
[5] = target: T3, human corticotrophin releasing hormone receptor type 1 (CRHR1) (human, UniProt P34998 24-415); experiment: radioligand competition against [125I]-(Tyr0)-sauvagine, CRHR1 assay, cell membranes
T3 construct: whole, on cells; cAMP assay on whole cells; radioligand assay on cell membranes; also called h-CRHR1; CRH receptor type 1
T3 sequence (looked up): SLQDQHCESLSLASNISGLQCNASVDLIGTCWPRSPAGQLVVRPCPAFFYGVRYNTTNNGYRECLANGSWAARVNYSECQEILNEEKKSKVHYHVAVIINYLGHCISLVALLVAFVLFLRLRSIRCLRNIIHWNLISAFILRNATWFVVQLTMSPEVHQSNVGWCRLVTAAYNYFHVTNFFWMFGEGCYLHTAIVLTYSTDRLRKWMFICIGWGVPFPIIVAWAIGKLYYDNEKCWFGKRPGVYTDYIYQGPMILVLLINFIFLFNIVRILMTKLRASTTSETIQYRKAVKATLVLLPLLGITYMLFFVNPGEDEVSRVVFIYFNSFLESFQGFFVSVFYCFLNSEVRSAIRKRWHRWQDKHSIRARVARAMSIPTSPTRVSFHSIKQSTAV
Procedure: Frozen cell pellets were defrosted on ice in 15 ml of assay buffer that was composed of 10 mM HEPES, 130 mM NaCl, 4.7 mM KCl, 5 mM MgCl₂, and 0.089 mM bacitracin at pH 7.2 and 21±3° Celsius. The solution was then homogenized with a Polytron tissue grinder at a setting of 10 and 7×3 s (Brinkmann Instruments, Westbury, N.Y.). The homogenate was centrifuged at 4° Celsius at 800×g for 5 min with the pellet being discarded. The supernatant was re-centrifuged at 26,892×g for 25 min at 4° Celsius with the final pellet being re-suspended in assay buffer. All binding assays were conducted in 96-well Multiscreen GF/B filter plates (Millipore, Billericay, Mass., U.S.A.) that were pre-soaked in assay buffer with 0.3% PEI for 1 hour. […]
The bound radioactivity was separated by filtration using a Multiscreen Resist manifold (Millipore Corp., Billerica, Mass., U.S.A). The filters were washed three times with ice-cold PBS at pH 7.5 and radioactivity retained on the filters was quantified by its liquid scintillation measured by a TopCount counter (Packard BioScience, Boston, Mass., U.S.A). […]
Data from individual competition curves were expressed as the percentage of specific [¹²⁵I]-anti-sauvagine-30 or)[¹²⁵I]-(Tyr⁰-sauvagine binding (B) within each experiment.

pA50 in the presence of anti-sauvagine-30 (human CRHR2; 100 nM anti-sauvagine-30, maximal response constrained to 100%): ~6.89 | agonist potency ratio to stresscopin of SEQ ID NO:1 reduced by a factor (human CRHR2; 10^(9.40-8.15)): 17.78 | nH (human CRHR2; Table 14): 1.05 | pA50 (human CRHR2; Table 14): 8.15 | αmax (human CRHR2; Table 14, % of the maximum response obtained to h-SCP): 111.1%
Molecule: TKFTLSLDVPTNIMNLLFNIAKAKNLRC(-IA-PEG MW20000)QA AANAH LMAQI-NH2 (TKFTLSLDVPTNIMNLLFNIAKAKNLRC([acetamide-PEG 20 kDa])QAAANAHLMAQI-NH2) [SEQ ID NO: 102]
heart rate (HF dogs; HF dogs, bolus SC injection 30 μg/kg): declined over the first few hours | LVEF and CO performance (HF dogs; HF dogs, bolus SC injection 30 μg/kg, up to 4 hours): significantly increased | stresscopin-relative concentration (HF dogs; of 60 ng/mL of SEQ ID NO:102 peptide): 600 pg/mL | stresscopin-relative concentration (HF dogs; of 100 ng/mL of SEQ ID NO:102 peptide): 1000 pg/mL | Vz (volume of distribution) ([1]; iv, 15 ug/kg): 0.51 ± 0.023 L/kg | % F (Bioavailability) ([1]; 15 ug/kg): 36% | AUC0-∞ ([1]; 15 ug/kg): 342 ± 107 ng·h/mL | Tmax ([1]; 15 ug/kg): 7 ± 1 h | % F (Bioavailability) ([1]; 150 ug/kg): 20% | AUC0-∞ ([1]; 150 ug/kg): 1914 ± 464 ng·h/mL | Tmax ([1]; 150 ug/kg): 6.3 ± 1.8 h | Vz (volume of distribution) ([2]; iv, 15 ug/kg): 0.034 ± 0.007 L/kg | % F (Bioavailability) ([2]; sc, 5 ug/kg): 71% | AUC0-∞ ([2]; sc, 5 ug/kg): 3510 ± 270 ng·h/mL | Cmax ([2]; sc, 5 ug/kg): 24.6 ± 2.6 ng/mL | Tmax ([2]; sc, 5 ug/kg): 32 ± 8 h | % F (Bioavailability) ([2]; sc, 15 ug/kg): 41% | AUC0-∞ ([2]; sc, 15 ug/kg): 6089 ± 1808 ng·h/mL | Tmax ([2]; sc, 15 ug/kg): 5 ± 1 h

pKI [3]: 7.78 -log10(M) | pA2 (antagonism of the cAMP response to h-SCP) [4]: 7.82 -log10(M) | pKI [5]: 5.81 -log10(M)
Molecule: FHLLRKMIEIEKQEKEKQQAANNRLLLDTI-NH2 (also called SV30; AS-30) [anti-sauvagine-30]
